9 substances from article PMC10338342 can be followed below.

The subject of data set [1] is MYC bHLH-LZ;MAX bHLH-LZ (human;human), P01106-1+P61244. The data set can be described thus: SeEN-seq (EMSA + NGS). To be noted: 62.5 nM TF; EMSA/SeEN-seq: 20 mM Tris-HCl pH 7.5, 75 mM NaCl, 10 mM KCl, 1 mM MgCl2, 0.1 mg/ml BSA, 1 mM DTT, room temp ~1 h; TR-FRET: 20 mM Tris-HCl pH 7.5, 75 or 125 mM …. (A gel shift assay detects complexes by their altered migration in electrophoresis.)

For data set [2], the target named is nucleosome core particle with H2B(T122C–biotin): H2A–H2B(T122C–biotin)–H3.1–H4 octamer wrapped by DNA (human) (UniProt P04908). As to the kind of experiment: FRET or BRET; LANCE TR-FRET forward titration: increasing His–MYC-MAX added to H2B(T122C)-biotinylated NCP SHL+5.1 with Eu-streptavidin, in the presence or absence of OCT4. On the technique in general: Bioluminescence resonance energy transfer reports proximity on the nanometre scale.

Data set [3] has as its target nucleosome core particle: human histone octamer (H2A, H2B, H3.1, H4) wrapped by DNA, P04908;P06899;P68431;P62805. As to the kind of experiment: smTIRF colocalization single-molecule imaging. The settings on record: substrate NCP.
Data set [4] has as its target CLOCK bHLH PAS-AB;BMAL1 bHLH PAS-AB WT (mouse;mouse) (UniProt O08785+Q9WTL8). The data set can be described thus: mass photometry. To be noted: EMSA/SeEN-seq: 20 mM Tris-HCl pH 7.5, 75 mM NaCl, 10 mM KCl, 1 mM MgCl2, 0.1 mg/ml BSA, 1 mM DTT, room temp ~1 h, TR-FRET: 20 mM Tris-HCl pH 7.5, 75 or 125 mM ….
Data set [5] deals with MYC bHLH-LZ;MAX bHLH-LZ (human;human), P01106-1+P61244. As to the kind of experiment: TR-FRET. The settings on record: about threefold vs without, EMSA/SeEN-seq: 20 mM Tris-HCl pH 7.5, 75 mM NaCl, 10 mM KCl, 1 mM MgCl2, 0.1 mg/ml BSA, 1 mM DTT, room temp ~1 h, TR-FRET: 20 mM Tris-HCl pH 7.5, 75 or 125 mM …. (In general: TR-FRET usually uses a lanthanide donor and a delayed reading to cut background.)
Chain of MYC bHLH-LZ;MAX bHLH-LZ (human;human), P01106-1+P61244 (P01106 366-452, chain 1 of 2): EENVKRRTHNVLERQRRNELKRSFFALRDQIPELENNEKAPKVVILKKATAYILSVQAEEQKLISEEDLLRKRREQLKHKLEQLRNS
Chain of MYC bHLH-LZ;MAX bHLH-LZ (human;human), P01106-1+P61244 (P61244 22-102, chain 2 of 2): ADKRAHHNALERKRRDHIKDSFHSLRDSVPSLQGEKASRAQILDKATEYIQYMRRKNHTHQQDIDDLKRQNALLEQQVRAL

For data set [6], the target named is nucleosome core particle: human histone octamer (H2A, H2B, H3.1, H4) wrapped by DNA (human) (UniProt P04908). As to the kind of experiment: mass photometry; CLOCK-BMAL1 with NCP SHL+5.8 (single E-box), 10 and 60 nM (1:6), 20 mM Tris-HCl pH 7.5, 100 mM KCl, 0.5 mM TCEP.
Data set [7] has the same target. As to the kind of experiment: mass photometry; CLOCK-BMAL1 with NCP SHL−6.2, 10 and 60 nM (1:6), 20 mM Tris-HCl pH 7.5, 100 mM KCl, 0.5 mM TCEP, 30 min room temperature.
For data set [8] the target is unchanged. The data set can be described thus: mass photometry; CLOCK-BMAL1 with NCP SHL+5.8-tandem (2 E-boxes with 7-bp spacing in a 601 sequence), 10 and 60 nM (1:6), 20 mM Tris-HCl pH 7.5, 100 mM KCl, 0.5 mM TCEP.

As for SeEN-seq NCP, E-box at SHL+5.8, the binding signal (log2 enrichment) in data set [1] was found to be 3.5.

With “MYC-MAX bHLH LZ heterodimer (from UniProt P61244 22-102) (complex)”, the fold strengthening of the binding isotherm in the presence of OCT4 in data set [2] amounted to 3 fold. Turning to “wild-type MYC-MAX–Spy, labelled with JF549–SpyCatcher (from UniProt P61244) MAX:Y73A; MAX:R76A”, in data set [3], the other: dwell time τoff,1 came out at 0.86 s and the other: dwell time τoff,2 was determined as 22 s. NCP SHL+5.8-tandem showed a binding signal in data set [4] (tandem E-box) of 51 % bound.

Substance NCP SHL+5.1 for TR-FRET yielded a binding signal (fold tighter with OCT4) in data set [5] of 3. In general, stoichiometry N refers to a count of units in the complex or per binding partner. As for “CLOCK-BMAL1 bHLH PAS-AB heterodimer (from UniProt O08785 26-395; Q9WTL8 62-441) (complex)”, in data set [6], the N (minority species) was 2 and the percent bound (total amount of CLOCK-BMAL1 bound, single E-box) was determined as 19%. The substance further had a stoichiometry N in data set [7] of 1. The substance further came in with a percent bound (total amount of CLOCK-BMAL1 bound, tandem E-boxes) in data set [8] of 51%. Turning to SeEN-seq NCP, E-box at SHL-6.2, the binding signal (log2 enrichment) in data set [1] came out at 2.2. “wild-type MYC-MAX–Spy, labelled with JF549–SpyCatcher (from UniProt P61244) MYC:S405Y; MYC:A408R” registered an other: dwell time τoff,1 in data set [3] of 0.6 s. In data set [4] (20 nM NCP, single E-box), NCP SHL+5.8 (W601) showed a binding signal of 19 % bound.
